This is an account of results in patent publication US20250011430A1.

Changes are numbered by the printed parent chain.

B1: huM30 (antibody, from another filing, V domains shown)
VH: QVQLVQSGAEVKKPGSSVKVSCKASGYTFTNYVMHWVRQAPGQGLEWMGYINPYNDDVKYNEKFKGRVTITADESTSTAYMELSSLRSEDTAVYYCARWGYYGSPLYYFDYWGQGTLVTVSS
VL: EIVLTQSPATLSLSPGERATLSCRASSRLIYMHWYQQKPGQAPRPLIYATSNLASGIPARFSGSGSGTDFTLTISSLEPEDFAVYYCQQWNSNPPTFGQGTKVEIK
B2: anti-B7H3 antibody 26B6 (antibody, V domains shown)
VH: EVQLQQSGPELVKPGASVKISCKTSGYAFTEYTMHWVKQSQGKSLEWIGGINPNTGGTTYNQKFNGKATLTVDRSSSTAYMELRSLTSEDSAVYYCTRPYRDDGGFHWYFDVWGAGTAVTVSS
VL: QIVLTQSPAVMSTSPGEKVTMTCSASSSVSYMQWYQQKSGTSPKRWIYDTSKLTSGVPARFSGSGSGTSYSLTISSMEAEDAATYYCQQWSSNPLTFGAGTKLELKR
B3: anti-B7H3 antibody 23H1 (antibody, V domains shown)
VH: EVKLVESGGGLVQPGGSLRLSCATSGFTFTDYYMSWVRQPPGKALEWLGFIRNKVNDYTTEYSVSVKGRFTISRDNSQTILYLQMNTLRAEDSATYYCARDSPYRPFAYWGQGTLVTVSA
VL: DIVMTQSPSSLTVTAGENVTMSCKSSQTLLNNGNQKNFLTWYQQKPGQPPKLLIYLASTRESGVPDRFTGSGSGTDFTLTISSVQAEDLAVYYCQNDYTYPLTFGAGTKLELKR
B4: anti-B7H3 antibody 6F7 (antibody, V domains shown)
VH: B3 VH with V55A, D57G, V64A, R74S, N76D, T79S, P103H
VL: B3 VL with V3Q, N18K, T28S, N32S, K36N, F38Y, E61D
B5: anti-B7H3 antibody 2B8 (antibody, V domains shown)
VH: QVQLQQSGPELVRPGVSVKISCKVSGYTFTDGAMHWVKRSHAKSLEWIGIINTNSGNTNYNQKFQGKATMTVDKSSSTAYMELARLTSEDSAIYYCARGVFYYGYGAWFAYWGQGTLVTVSA
VL: DVQITQSPSYLTASPGETIIINCRASKTISNYLAWYQEKPGKTNKLLIYSGSTLQSGIPSRFSGSGSDTDFTLTISSLEPEDFAMYYCQQHHEYPLTFGAGTKLELKR
B6: humanized 6F7 with light chain variable region LV1 (antibody, V domains shown)
VH: EVQLVESGGGLVQPGGSLRLSCAASGFTFTDYYMSWVRQAPGKGLEWVAFIRNKANGYTTEYSASVKGRFTISRDDSKNSLYLQMNSLRAEDTAVYYCARDSHYRPFAYWGQGTLVTVSS
VL: DIVMTQSPLSLPVTPGEPASISCKSSQSLLNSGNQNNYLTWYLQKPGQSPQLLIYLASTRDSGVPDRFSGSGSGTDFTLKISRVEAEDVGVYYCQNDYTYPLTFGGGTKVEIKR
B7: humanized 6F7 with light chain variable region LV2 (antibody, V domains shown)
VH: B6 VH
VL: DIVMTQSPDSLAVSLGERATINCKSSQSLLNSGNQNNYLTWYQQKPGQPPKLLIYLASTRDSGVPDRFSGSGSGTDFTLTISSLQAEDVAVYYCQNDYTYPLTFGGGTKVEIKR
B8: humanized 26B6 (antibody, V domains shown)
VH: EVQLVQSGAEVKKPGASVKVSCKASGYTFTEYTMHWVRQAPGQGLEWIGGINPNTGGTTYNQKFNGRVTMTRDTSISTAYMELSSLRSEDTAVYYCTRPYRDDGGFHWYFDVWGQGTLVTVSS
VL: EIVLTQSPATLSLSPGERATLSCSASSSVSYMQWYQQKPGLAPRLLIYDTSKLTSGIPDRFSGSGSGTDFTLTISRLEPEDFAVYYCQQWSSNPLTFGGGTKVEIKR

One test has as its target T1, B7H3 on cells (B7H3 on HEK293 cells; B7H3 expressed from plasmid on HEK-293T and QT6 cells) (human) (UniProt Q5ZPR3).
T1 sequence (looked up): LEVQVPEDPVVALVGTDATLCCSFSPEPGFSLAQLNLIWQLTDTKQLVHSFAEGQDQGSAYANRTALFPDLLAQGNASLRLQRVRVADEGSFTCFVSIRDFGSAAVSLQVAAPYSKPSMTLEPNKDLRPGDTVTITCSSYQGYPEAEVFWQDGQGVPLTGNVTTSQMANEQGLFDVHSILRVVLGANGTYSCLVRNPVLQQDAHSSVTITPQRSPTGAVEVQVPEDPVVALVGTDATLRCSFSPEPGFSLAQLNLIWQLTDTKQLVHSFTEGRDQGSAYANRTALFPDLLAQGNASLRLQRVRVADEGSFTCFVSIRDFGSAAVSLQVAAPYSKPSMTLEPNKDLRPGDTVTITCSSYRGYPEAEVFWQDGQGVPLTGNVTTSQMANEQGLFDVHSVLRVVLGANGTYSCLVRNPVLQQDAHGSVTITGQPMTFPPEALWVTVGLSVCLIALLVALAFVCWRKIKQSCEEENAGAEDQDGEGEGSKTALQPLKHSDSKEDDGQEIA
The test can be described thus: flow cytometry on HEK293 cells.
B1 gave a concentration giving a half-maximal response (EC50) of 0.0974 µg/mL.

The target in the next test is human B7H3 ECD-His (human) (UniProt Q5ZPR3). The test can be described thus: ForteBio BLI, antibody on AHQ sensor, 60 nM antigen, 1:1 model.
The molecule B1 gave a Kd of 0.346 nM.
As to B2, the equilibrium dissociation constant (Kd) worked out at 0.435 nM. This Kd and that of the molecule before are within 1.5-fold of each other.
B3 gave a dissociation constant (Kd) of 0.685 nM.
The same measure, in the same setting: the same measure for B4: 0.537 nM; for B5: 0.323 nM.

For another test the target is unchanged. The test is described as follows: ForteBio BLI.
On to B1, for which the dissociation constant (Kd) amounted to 0.277 nM.
Same read-out and setting: under B6 stands 37 nM; under B7, 14.2 nM; under B8, 0.753 nM.
